How the values were obtained:
Assay in all cases: biochemical
Conditions in all cases: read-out: Percentages of residual activities of the kinase reaction
CAMK1 = CAMK1 (Homo sapiens, UniProt Q14012)
Experimental: (§1) Selectivity testing (Table 2) was performed on the commercial basis at the Division of Signal Transduction Therapy, University of Dundee. ATP concentrations that were used in testing were close to the Km value of the kinase.

CHK2 = CHK2 (Homo sapiens, UniProt O96017)
Experimental: as §1

EPH-A4 = EPH-A4 (Homo sapiens, UniProt P54764)
Experimental: as §1

EPH-B1 = EPH-B1 (Homo sapiens, UniProt P54762)
Experimental: as §1

EPH-B2 = EPH-B2 (Homo sapiens, UniProt P29323)
Experimental: as §1

ERK2 = ERK2 (Homo sapiens, UniProt P28482)
Experimental: as §1

ERK8 = ERK8 (Homo sapiens, UniProt Q8TD08)
Experimental: as §1

GSK3b = GSK3b (Homo sapiens, UniProt P49841)
Experimental: as §1

HER4 = HER4 (Homo sapiens, UniProt Q15303)
Experimental: as §1

HIPK1 = HIPK1 (Homo sapiens, UniProt Q86Z02)
Experimental: as §1

IKKe = IKKe (Homo sapiens, UniProt Q14164)
Experimental: as §1

IRAK4 = IRAK4 (Homo sapiens, UniProt Q9NWZ3)
Experimental: as §1

IRR = IRR (Homo sapiens, UniProt P14616)
Experimental: as §1

JAK2 = JAK2 (Homo sapiens, UniProt O60674)
Experimental: as §1

Lck = Lck (Homo sapiens, UniProt P06239)
Experimental: as §1

MAPKAP-K2 = MAPKAP-K2 (Homo sapiens, UniProt P49137)
Experimental: as §1

MAPKAP-K3 = MAPKAP-K3 (Homo sapiens, UniProt Q16644)
Experimental: as §1

MARK1 = MARK1 (Homo sapiens, UniProt Q9P0L2)
Experimental: as §1

MARK2 = MARK2 (Homo sapiens, UniProt Q7KZI7)
Experimental: as §1

MARK3 = MARK3 (Homo sapiens, UniProt P27448)
Experimental: as §1

MARK4 = MARK4 (Homo sapiens, UniProt Q96L34)
Experimental: as §1

MELK = MELK (Homo sapiens, UniProt Q14680)
Experimental: as §1

MSK1 = MSK1 (Homo sapiens, UniProt O75582)
Experimental: as §1

MST4 = MST4 (Homo sapiens, UniProt Q9P289)
Experimental: as §1

NUAK1 = NUAK1 (Homo sapiens, UniProt O60285)
Experimental: as §1

PAK2 = PAK2 (Homo sapiens, UniProt Q13177)
Experimental: as §1

PAK6 = PAK6 (Homo sapiens, UniProt Q9NQU5)
Experimental: as §1

PIM2 = PIM2 (Homo sapiens, UniProt Q9P1W9)
Experimental: as §1

PKA = PKA (Homo sapiens, UniProt P17612)
Experimental: as §1

PKBa = PKBa (Homo sapiens, UniProt P31749)
Experimental: as §1

PKBb = PKBb (Homo sapiens, UniProt P31751)
Experimental: as §1

PKCa = PKCa (Homo sapiens, UniProt P17252)
Experimental: as §1

PKCγ = PKCγ (Homo sapiens, UniProt P05129)
Experimental: as §1

PKD1 = PKD1 (Homo sapiens, UniProt Q15139)
Experimental: as §1

ROCK 2 = ROCK 2 (Homo sapiens, UniProt O75116)
Experimental: as §1

SGK1 = SGK1 (Homo sapiens, UniProt O00141)
Experimental: as §1

SRPK1 = SRPK1 (Homo sapiens, UniProt Q96SB4)
Experimental: as §1

TAK1 = TAK1 (Homo sapiens, UniProt O43318)
Experimental: as §1

TIE2 = TIE2 (Homo sapiens, UniProt Q02763)
Experimental: as §1

ZAP70 = ZAP70 (Homo sapiens, UniProt P43403)
Experimental: as §1

p38a MAPK = p38a MAPK (Homo sapiens, UniProt Q16539)
Experimental: as §1

Chain of ZAP70 (P43403 whole entry, species assumed): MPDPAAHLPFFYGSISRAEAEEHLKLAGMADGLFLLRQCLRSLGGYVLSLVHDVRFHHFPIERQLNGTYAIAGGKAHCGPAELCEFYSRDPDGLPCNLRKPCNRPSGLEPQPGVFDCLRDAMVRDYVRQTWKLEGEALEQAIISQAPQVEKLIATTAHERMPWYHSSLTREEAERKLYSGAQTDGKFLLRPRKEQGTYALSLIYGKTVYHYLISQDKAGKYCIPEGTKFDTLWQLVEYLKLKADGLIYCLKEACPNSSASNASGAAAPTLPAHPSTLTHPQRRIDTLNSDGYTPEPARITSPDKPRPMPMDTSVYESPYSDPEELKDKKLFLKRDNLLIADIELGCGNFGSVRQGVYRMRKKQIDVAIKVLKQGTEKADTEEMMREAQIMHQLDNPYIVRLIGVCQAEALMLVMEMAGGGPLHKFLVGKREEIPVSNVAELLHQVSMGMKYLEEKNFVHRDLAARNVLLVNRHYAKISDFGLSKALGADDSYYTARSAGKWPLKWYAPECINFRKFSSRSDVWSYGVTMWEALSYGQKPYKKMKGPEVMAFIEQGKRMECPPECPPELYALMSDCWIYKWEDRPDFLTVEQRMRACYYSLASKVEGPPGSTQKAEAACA
Chain of MELK (Q14680 whole entry, species assumed): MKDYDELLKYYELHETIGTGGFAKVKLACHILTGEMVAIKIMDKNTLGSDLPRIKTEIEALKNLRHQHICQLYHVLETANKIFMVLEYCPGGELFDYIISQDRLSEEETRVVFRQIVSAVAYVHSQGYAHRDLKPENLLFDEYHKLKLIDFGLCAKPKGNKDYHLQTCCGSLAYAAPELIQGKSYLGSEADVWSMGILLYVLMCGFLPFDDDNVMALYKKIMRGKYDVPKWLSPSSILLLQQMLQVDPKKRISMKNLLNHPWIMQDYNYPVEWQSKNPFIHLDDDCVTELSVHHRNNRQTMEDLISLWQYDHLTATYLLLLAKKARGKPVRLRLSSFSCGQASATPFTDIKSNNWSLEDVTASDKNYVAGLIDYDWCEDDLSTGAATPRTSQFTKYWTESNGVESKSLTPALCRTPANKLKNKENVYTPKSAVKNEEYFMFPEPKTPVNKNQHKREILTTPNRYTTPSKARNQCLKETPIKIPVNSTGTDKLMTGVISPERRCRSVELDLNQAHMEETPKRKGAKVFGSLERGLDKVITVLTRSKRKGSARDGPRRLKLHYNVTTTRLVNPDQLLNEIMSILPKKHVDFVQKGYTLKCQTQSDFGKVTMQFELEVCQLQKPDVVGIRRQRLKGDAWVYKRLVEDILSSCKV
Chain of PAK6 (Q9NQU5 whole entry, species assumed): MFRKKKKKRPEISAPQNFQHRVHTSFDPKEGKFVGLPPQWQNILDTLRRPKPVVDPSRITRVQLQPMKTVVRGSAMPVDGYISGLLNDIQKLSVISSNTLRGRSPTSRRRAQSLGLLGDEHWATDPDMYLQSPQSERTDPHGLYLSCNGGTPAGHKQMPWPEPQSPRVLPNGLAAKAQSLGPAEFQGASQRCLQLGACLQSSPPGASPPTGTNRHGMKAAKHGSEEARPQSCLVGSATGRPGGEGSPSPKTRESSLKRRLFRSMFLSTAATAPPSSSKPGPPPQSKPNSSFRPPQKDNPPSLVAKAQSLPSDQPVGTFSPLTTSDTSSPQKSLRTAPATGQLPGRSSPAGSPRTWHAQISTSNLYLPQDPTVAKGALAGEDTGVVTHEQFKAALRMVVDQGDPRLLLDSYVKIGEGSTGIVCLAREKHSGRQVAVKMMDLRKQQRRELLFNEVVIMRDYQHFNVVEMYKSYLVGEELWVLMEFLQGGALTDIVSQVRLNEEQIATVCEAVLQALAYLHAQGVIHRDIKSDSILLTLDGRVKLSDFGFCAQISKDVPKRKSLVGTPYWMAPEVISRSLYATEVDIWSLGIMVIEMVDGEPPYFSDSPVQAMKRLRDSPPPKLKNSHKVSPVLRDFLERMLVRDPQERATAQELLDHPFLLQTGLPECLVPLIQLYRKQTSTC
Chain of MSK1 (O75582 whole entry, species assumed): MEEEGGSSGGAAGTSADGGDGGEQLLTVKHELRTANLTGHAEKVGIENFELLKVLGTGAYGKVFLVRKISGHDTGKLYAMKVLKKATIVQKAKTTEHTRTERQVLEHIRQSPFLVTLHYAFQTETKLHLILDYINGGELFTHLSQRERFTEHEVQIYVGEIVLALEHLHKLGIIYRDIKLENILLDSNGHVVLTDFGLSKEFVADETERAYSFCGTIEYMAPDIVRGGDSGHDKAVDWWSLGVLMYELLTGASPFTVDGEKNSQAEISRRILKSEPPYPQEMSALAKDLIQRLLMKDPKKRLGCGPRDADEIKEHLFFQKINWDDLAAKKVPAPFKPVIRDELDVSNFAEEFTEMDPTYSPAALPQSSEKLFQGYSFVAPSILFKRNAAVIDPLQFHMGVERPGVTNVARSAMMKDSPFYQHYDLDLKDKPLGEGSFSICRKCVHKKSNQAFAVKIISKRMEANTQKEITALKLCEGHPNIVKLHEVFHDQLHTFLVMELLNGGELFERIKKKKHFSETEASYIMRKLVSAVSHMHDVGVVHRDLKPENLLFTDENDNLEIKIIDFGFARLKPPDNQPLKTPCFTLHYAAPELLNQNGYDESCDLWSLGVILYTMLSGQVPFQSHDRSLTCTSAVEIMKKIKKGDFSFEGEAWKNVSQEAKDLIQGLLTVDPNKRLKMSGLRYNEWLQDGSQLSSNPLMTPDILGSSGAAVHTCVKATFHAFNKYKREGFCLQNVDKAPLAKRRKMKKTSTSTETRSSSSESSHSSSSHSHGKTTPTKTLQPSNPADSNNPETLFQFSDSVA
Chain of CAMK1 (Q14012 whole entry): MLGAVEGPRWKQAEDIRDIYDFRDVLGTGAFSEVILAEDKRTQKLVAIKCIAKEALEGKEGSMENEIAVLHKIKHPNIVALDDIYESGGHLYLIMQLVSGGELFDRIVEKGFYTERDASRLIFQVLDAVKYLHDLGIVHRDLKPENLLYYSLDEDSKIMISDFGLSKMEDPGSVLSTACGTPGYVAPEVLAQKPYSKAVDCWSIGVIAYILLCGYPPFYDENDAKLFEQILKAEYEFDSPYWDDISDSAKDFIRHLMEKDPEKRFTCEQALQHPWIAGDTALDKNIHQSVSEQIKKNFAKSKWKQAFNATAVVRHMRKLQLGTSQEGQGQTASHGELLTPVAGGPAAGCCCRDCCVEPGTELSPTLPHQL
Chain of MARK3 (P27448 whole entry, species assumed): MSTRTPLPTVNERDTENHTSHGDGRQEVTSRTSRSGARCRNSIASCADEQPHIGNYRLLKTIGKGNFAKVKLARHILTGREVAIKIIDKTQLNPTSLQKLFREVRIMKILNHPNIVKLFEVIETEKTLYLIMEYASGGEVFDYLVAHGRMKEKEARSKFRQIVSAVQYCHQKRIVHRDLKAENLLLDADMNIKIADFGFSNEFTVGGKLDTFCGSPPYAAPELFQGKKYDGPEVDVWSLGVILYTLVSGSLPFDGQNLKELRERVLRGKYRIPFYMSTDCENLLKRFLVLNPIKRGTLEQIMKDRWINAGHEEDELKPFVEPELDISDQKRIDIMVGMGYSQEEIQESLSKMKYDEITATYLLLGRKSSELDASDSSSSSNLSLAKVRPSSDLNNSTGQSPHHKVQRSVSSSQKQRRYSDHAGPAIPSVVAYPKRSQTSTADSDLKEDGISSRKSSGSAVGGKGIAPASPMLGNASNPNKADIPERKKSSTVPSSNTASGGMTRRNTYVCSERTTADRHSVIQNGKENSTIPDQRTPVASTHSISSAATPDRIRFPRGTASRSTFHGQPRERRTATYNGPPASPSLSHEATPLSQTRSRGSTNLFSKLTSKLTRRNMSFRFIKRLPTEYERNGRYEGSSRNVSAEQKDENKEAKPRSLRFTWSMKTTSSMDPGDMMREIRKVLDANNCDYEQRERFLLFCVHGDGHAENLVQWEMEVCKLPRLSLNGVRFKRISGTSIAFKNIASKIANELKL
Chain of IRAK4 (Q9NWZ3 whole entry, species assumed): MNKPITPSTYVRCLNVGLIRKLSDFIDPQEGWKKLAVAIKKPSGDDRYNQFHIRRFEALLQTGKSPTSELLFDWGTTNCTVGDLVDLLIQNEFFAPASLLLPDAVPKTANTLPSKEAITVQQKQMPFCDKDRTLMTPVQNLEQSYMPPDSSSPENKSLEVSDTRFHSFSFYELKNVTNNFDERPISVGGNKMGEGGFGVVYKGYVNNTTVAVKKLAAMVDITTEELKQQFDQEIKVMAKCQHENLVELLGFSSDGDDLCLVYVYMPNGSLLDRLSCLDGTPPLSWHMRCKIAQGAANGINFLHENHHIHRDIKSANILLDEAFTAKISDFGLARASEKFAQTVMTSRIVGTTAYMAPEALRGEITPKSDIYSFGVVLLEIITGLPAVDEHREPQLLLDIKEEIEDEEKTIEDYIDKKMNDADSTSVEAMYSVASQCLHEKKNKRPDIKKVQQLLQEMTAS

Structure (SMILES): CN(C)c1ccc2c(c1)Oc1cc(N(C)C)ccc1C21OC(=O)c2cc(C(=O)NCCCC[C@@H](NC(=O)[C@@H](CCCNC(=N)N)NC(=O)[C@@H](CCCNC(=N)N)NC(=O)[C@@H](CCCNC(=N)N)NC(=O)[C@@H](CCCNC(=N)N)NC(=O)[C@@H](CCCNC(=N)N)NC(=O)[C@@H](CCCNC(=N)N)NC(=O)CCCCCNC(=O)[C@@H](CCCNC(=N)N)NC(=O)CCCCCNC(=O)c3ccc(-c4ccnc(N)n4)s3)C(N)=O)ccc21 [ARC-669]
- remaining activity at 1 µM (CAMK1): 3%
- remaining activity at 1 µM (CHK2): 28%
- remaining activity at 1 µM (EPH-A4): 76%
- remaining activity at 1 µM (EPH-B1): 90%
- remaining activity at 1 µM (EPH-B2): 96%
- remaining activity at 1 µM (ERK2): 80%
- remaining activity at 1 µM (ERK8): 23%
- remaining activity at 1 µM (GSK3b): 77%
- remaining activity at 1 µM (HER4): 82%
- remaining activity at 1 µM (HIPK1): 94%
- remaining activity at 1 µM (IKKe): 37%
- remaining activity at 1 µM (IRAK4): 82%
- remaining activity at 1 µM (IRR): 32%
- remaining activity at 1 µM (JAK2): 80%
- remaining activity at 1 µM (Lck): 11%
- remaining activity at 1 µM (MAPKAP-K2): 13%
- remaining activity at 1 µM (MAPKAP-K3): 31%
- remaining activity at 1 µM (MARK1): 65%
- remaining activity at 1 µM (MARK2): 77%
- remaining activity at 1 µM (MARK3): 20%
- remaining activity at 1 µM (MARK4): 86%
- remaining activity at 1 µM (MELK): 31%
- remaining activity at 1 µM (MSK1): 3%
- remaining activity at 1 µM (MST4): 45%
- remaining activity at 1 µM (NUAK1): 12%
- remaining activity at 1 µM (PAK2): 43%
- remaining activity at 1 µM (PAK6): 35%
- remaining activity at 1 µM (PIM2): 15%
- remaining activity at 1 µM (PKA): 1%
- remaining activity at 1 µM (PKBa): 1%
- remaining activity at 1 µM (PKBb): 4%
- remaining activity at 1 µM (PKCa): 15%
- remaining activity at 1 µM (PKCγ): 13%
- remaining activity at 1 µM (PKD1): 37%
- remaining activity at 1 µM (ROCK 2): 10%
- remaining activity at 1 µM (SGK1): 8%
- remaining activity at 1 µM (SRPK1): 66%
- remaining activity at 1 µM (TAK1): 13%
- remaining activity at 1 µM (TIE2): 86%
- remaining activity at 1 µM (ZAP70): 82%
- remaining activity at 1 µM (p38a MAPK): 55%

— patent US20140057284A1, “PHOTOLUMINESCENT MOLECULAR COMPLEX AND METHOD FOR DETERMINING OF THE CONCENTRATION OF SAID MOLECULAR COMPLEX” (priority 2011, published 2014)
